The experiment deals with Bovine serum albumin (bovine) (UniProt P02769).

For the substance “GluC protease (Mass Spectrometry Grade, Promega V1651) (from UniProt P0C1U8) (enzyme)”, the BSA sequence coverage after digestion (nLC-MS/MS) (% BSA sequence coverage) amounted to 93.1.
The substance “Trypsin/LysC protease mix (Mass Spectrometry Grade, Promega V5072) (pool or library)” registered a BSA sequence coverage after digestion (nLC-MS/MS) (% BSA sequence coverage) of 91.3.

The values above are taken from patent US20230027592A1.
